Experimental findings from publication PMC9500956, “In Vitro Characterization of the Physical Interactions between the Long Noncoding RNA TERRA and the Telomeric Proteins TRF1 and TRF2” are described below.

What all share (assay): EMSA; E. coli tRNA; RNA EMSA: 50 mM HEPES pH 8, 1 mM DTT, 100 mM NaCl, 0.01% BSA, 2% glycerol, 50 ng/uL E. coli tRNA, 0.25 nM RNA, 20 min on ice then 10 min 25 C; dsDNA EMSA: same
Data set [1] deals with T1, GST-B (hB) (human, UniProt Q15554 43-86).
T1 chain: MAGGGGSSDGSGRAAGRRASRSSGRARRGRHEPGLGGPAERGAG
As to conditions: protein: recombinant, tags: N-terminal GST, label: 5'-32P.

Data set [2] concerns the target GST-TRF1 (human, UniProt P54274 1-439). The following applies: protein: recombinant, tags: N-terminal GST, chain copies: 2, label: 5'-32P.
In data set [3] the target is GST-TRF2 (human, UniProt Q15554 43-542). The following applies: protein: recombinant, tags: N-terminal GST, chain copies: 2, label: 5'-32P.
The target in data set [4] is T2, GST-A (hA) (human, UniProt P54274 1-66).
T2 sequence: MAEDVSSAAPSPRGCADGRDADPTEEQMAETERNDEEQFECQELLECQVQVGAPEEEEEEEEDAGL
As to conditions: protein: recombinant; tags: N-terminal GST; label: 5'-32P; G4-forming.

Data set [5] deals with GST-hBL (human, UniProt Q15554 1-86). As to conditions: protein: recombinant; tags: N-terminal GST; label: 5'-32P; G4-forming.

B1: TERRA (UUAGGG)12 (structured_RNA)
RNA: UUAGGGUUAGGGUUAGGGUUAGGGUUAGGGUUAGGGUUAGGGUUAGGGUUAGGGUUAGGGUUAGGGUUAGGG
As to B1, in data set [1], the binding result is reported as “binds”.

B2: TERRA (UUAGGG)5 (structured_RNA)
RNA: UUAGGGUUAGGGUUAGGGUUAGGGUUAGGG
As for B2, the binding result is reported as “binds” in data set [2] (G4-forming); “binds” in data set [1] (G4-forming); “binds” in data set [3] (G4-forming); “no binding” in data set [4]; “binds” in data set [5].

B3: MUT3 (AUAGGG)5 (structured_RNA)
RNA: AUAGGGAUAGGGAUAGGGAUAGGGAUAGGG
Turning to B3, the binding result in data set [2] (G4-forming), in data set [1] (G4-forming) and in data set [3] (G4-forming) was “binds” in each case.

B4: MUT1 (UUACGG)5 (ssRNA)
RNA: UUACGGUUACGGUUACGGUUACGGUUACGG
For the molecule B4, the binding result in data set [2] (not G4-forming), in data set [1] (not G4-forming) and in data set [3] (not G4-forming) was “no binding” throughout.

B5: MUT2 (UUACCG)5 (ssRNA)
RNA: UUACCGUUACCGUUACCGUUACCGUUACCG
As to B5, the binding result in data set [2] (not G4-forming), in data set [1] (not G4-forming) and in data set [3] (not G4-forming) was “no binding” each time.

B6: MUT4 (AAAGGG)5 (structured_RNA)
RNA: AAAGGGAAAGGGAAAGGGAAAGGGAAAGGG
For B6, the binding result in data set [2] (G4-forming), in data set [1] (G4-forming) and in data set [3] (G4-forming) was “binds” each time.
